In patent publication US20020001857A1:
Each block holds one substance with its values, some of them ahead of it.

Experiments:
[1] = target: PHF-tau (human) (UniProt P10636); experiment: competition ELISA on captured PHF-tau; biotinylated AT8, unlabeled competitor AT8 at 10 ug/ml
[2] = target: PHF-tau (human) (UniProt P10636); experiment: competition ELISA on captured PHF-tau; biotinylated AT8, unlabeled competitor AT120 at 10 ug/ml
[3] = target: PHF-tau (human) (UniProt P10636); experiment: competition ELISA on captured PHF-tau; biotinylated AT120, unlabeled competitor AT8 at 10 ug/ml
[4] = target: PHF-tau (human) (UniProt P10636); experiment: sandwich ELISA, AT120 coated, no tau added (background), detection with biotinylated BT2 and HT7
[5] = target: affinity-purified human normal tau (human) (UniProt P10636); experiment: as above
[6] = target: PHF-tau (human) (UniProt P10636); experiment: competition ELISA on captured PHF-tau; biotinylated AT120, unlabeled competitor AT120 at 10 ug/ml
[7] = target: PHF-tau (human) (UniProt P10636); experiment: sandwich ELISA, AT120 coated, tau spiked in tau-negative CSF, detection with biotinylated BT2 and HT7
[8] = target: affinity-purified human normal tau (human) (UniProt P10636); experiment: as above
[9] = target: PHF-tau (human) (UniProt P10636); experiment: competition ELISA on captured PHF-tau; biotinylated BT2, unlabeled competitor BT2 at 10 ug/ml
[10] = target: PHF-tau (human) (UniProt P10636); experiment: competition ELISA on captured PHF-tau; biotinylated BT2, unlabeled competitor AT120 at 10 ug/ml

absorbance [1]: 0.001 absorbance
absorbance [2]: 0.372 absorbance
Substance: monoclonal antibody AT8

absorbance [3]: 0.476 absorbance
absorbance at 0 pg/ml (blank) (milliabsorbance units) [4]: 92
absorbance at 0 pg/ml (blank) (milliabsorbance units) [5]: 87
absorbance [6]: 0.001 absorbance
absorbance at 10 pg/ml (milliabsorbance units) [7]: 143
absorbance at 20 pg/ml (milliabsorbance units) [7]: 257
absorbance at 40 pg/ml (milliabsorbance units) [7]: 566
absorbance at 80 pg/ml (milliabsorbance units) [7]: 901
absorbance at 160 pg/ml (milliabsorbance units) [7]: 1680
absorbance at 10 pg/ml (milliabsorbance units) [8]: 154
absorbance at 20 pg/ml (milliabsorbance units) [8]: 256
absorbance at 40 pg/ml (milliabsorbance units) [8]: 678
absorbance at 80 pg/ml (milliabsorbance units) [8]: 970
absorbance at 160 pg/ml (milliabsorbance units) [8]: 1610
Substance: monoclonal antibody AT120

absorbance [9]: 0.054 absorbance
absorbance [10]: 0.543 absorbance
Substance: monoclonal antibody BT2
